The data set has as its system MS2 coat protein. Kind of data set: apparent KD of MS2 coat protein; designed switch direction (-1 OFF switch, 1 ON switch): 1; higher = weaker reporter binding. The method, boiled down: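 Apparent KD, taken as the median over clusters for each design, was obtained by curve-fitting normalised cluster fluorescence. Designed RNA switches had been transcribed on Illumina chips by stalled E. coli RNA polymerase and titrated with SNAP-549-labelled MS2 coat protein, doubling from 0.7 or 1.5 nM to 3 µM.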

Where [1] appears, read: input ligand: microRNA oligo, concentration not stated.
[2] abbreviates: Eterna round: R95, input ligand: FMN 200 uM.
Setting [3] is: Eterna round: R95, input ligand: microRNA oligo, concentration not stated.
Setting [4] is: Eterna round: R95, input ligand: none.

“GAGUGGUAAAGAGGAUAUGCAUUGUUAUUAAAUGCAGAAGGUUUUAACAUGAGGAUCACCCAUGUAGGACUAUUCCUGUGUUUC [Parity 65 - Jieux - Same State NG 1] (Eterna round: R96, puzzle: Same State NG 1)”: the “apparent KD of MS2 coat protein” value under setting [1] turned out to be 11.4 nM.

Regarding “UCGGGCGUACUUGCUGACAUGAGGAUCACCCAUGUGUUUGGGAAGGAUAUGGUUCCGUUUCGGUUCCAGAAGGUCCUGGGUGCU [salish99_SSNG3_r04_314] (Eterna round: R96, puzzle: Same State NG 3)”, the “apparent KD of MS2 coat protein” value reads like this: (input ligand: FMN 200 uM) 337 nM; under setting [1], 254 nM; (input ligand: none) 246 nM.

“CAAUAAAACACAGGAUAUACAGCCAGCCAGGCUGUAGAAGGGUGAGACAUGAGGAUCACCCAUGUACAAGUCGUAGGACUUGGG [Edlaticeen] (Eterna round: R96, puzzle: Same State NG 1)”: the “apparent KD of MS2 coat protein” value runs as follows: (input ligand: FMN 200 uM) 1030 nM; under setting [1], 47.7 nM; (input ligand: none) 163 nM.

On to “GAGAGAUGGCGAGGAUAUUCGGUGAUAAUGAUAGAAGAAGGCGCUGACAUGAGGAUCACCCAUGUGGGAAUAAUCCAGAGAGAG [Parity 18 - Jieux - Same State NG 1] (Eterna round: R96, puzzle: Same State NG 1)”, for which the “apparent KD of MS2 coat protein” value worked out at 283 nM (input ligand: FMN 200 uM), 73.8 nM under setting [1] and 226 nM (input ligand: none).

“UACAAUCUAUCUGAGGAUAUCAUGAAAAAAACAUGAGGAUCACCCAUGUGCAGGAAAACUGCAUAUGAGAAGGCAGAUAGAUUGC [salish99_SS2_r3_008] (Eterna round: R96, puzzle: Same State 2)”: the “apparent KD of MS2 coat protein” value under setting [1] turned out to be 458 nM.

As for “GGUCCGGCCUGAGCUGGACCGAGGCAUGUACAUGAGGAUCACCCAUGUUCAUGUGCAGGCUUUUUGCUCGUCUUGUG [JL-shm-2.06 JL mod] (puzzle: Sensor for hsa-mir-208a)”, the “apparent KD of MS2 coat protein” value was determined as 49.6 nM under setting [2], 11 nM under setting [3] and 50.6 nM under setting [4].

With “AAAAGACAUGAGGAUCACCCAUGUGAAAACGUAGGAGGAUAUGUCGUGAAAAAAGACUUGACAGAAGGCCUGUGUC [SS1 - 34] (Eterna round: R96, puzzle: Same State 1)”, the “apparent KD of MS2 coat protein” value under setting [1] turned out to be 88.9 nM.

Consider “UUCCUUCUCGUAGGAUAUGUAGGAUAUUCCUACAUGAGGAUCACCCAUGUUCGCAUGGAAGAAGGACAGAAGGACGAUCACCCU [pwkr ssNG2 2FMN + 1F5.11] (Eterna round: R96, puzzle: Same State NG 2)”, for which the “apparent KD of MS2 coat protein” value runs as follows: (input ligand: FMN 200 uM) 91.3 nM; under setting [1], 74.3 nM; (input ligand: none) 98.5 nM.

On to “AUUAAACAUGAGGAUCACCCAUGUCAACAAAGUCGAGGAUAUGGGCUAAUAAAAUAAGAACCAGAAGGCGAAUAAU [salish99_ss1_r3_062] (puzzle: Same State 1)”, for which the “apparent KD of MS2 coat protein” value is, setting by setting: under setting [2], 26.8 nM; under setting [3], 185 nM; under setting [4], 211 nM.

In the case of “AAACUACAUGAGGAUCACCCAUGUGAAAACCGCAUAGGAUAUCCGCAGCAAUAAACUGACGGAGAAGGGUGACCGG [Sobearcege] (puzzle: Same State 1)”, the “apparent KD of MS2 coat protein” value turned out to be 306 nM under setting [2], 414 nM under setting [3] and 549 nM under setting [4].

Regarding “GGUUUAGUCGAGUACCGUUCCACUCGAAAACAUGAGGAUCACCCAUGUUUGGGACAAGCUUUGCUCCUCGUCUUUCC [Inardiza] (puzzle: Sensor for hsa-mir-208a)”, the “apparent KD of MS2 coat protein” value under setting [2] was found to be 29.6 nM, the “apparent KD of MS2 coat protein” value under setting [3] worked out at 64.8 nM and the “apparent KD of MS2 coat protein” value under setting [4] amounted to 36.6 nM.

As to “AGAUGUUAAUCAGGAUAUGGGCACAUGAGGAUCACCCAUGUAAAUUCGAUACUAUGUGGACACGUCUAGAAGGGAUGGCUAACA [SameState NG2 #83] (Eterna round: R96, puzzle: Same State NG 2)”, the “apparent KD of MS2 coat protein” value (input ligand: FMN 200 uM) was determined as 125 nM, the “apparent KD of MS2 coat protein” value under setting [1] was determined as 73.5 nM and the “apparent KD of MS2 coat protein” value (input ligand: none) worked out at 106 nM.

Turning to “CCGGUUAAUGGAGGAUAUGGAGCCUUAUUGGCUCCAGAAGGCUAACAUGAGGAUCACCCAUGUUUACCGGCGGUCAAUAGACCG [Eli NG1ss - 62] (Eterna round: R96, puzzle: Same State NG 1)”, the “apparent KD of MS2 coat protein” value was 11 nM (input ligand: FMN 200 uM), 11 nM under setting [1] and 18.8 nM (input ligand: none).

As to “AGAUCAUGACGAGGAUAUGGUACAUGAGGAUCACCCAUGUAUGUACCAUAGCAACAGCUAGGAAACCAGAAGGCGUCGUGGUCA [jandersonlee JLSSNG2 1.18 Native F5 + F7] (Eterna round: R96, puzzle: Same State NG 2)”, the “apparent KD of MS2 coat protein” value reads like this: (input ligand: FMN 200 uM) 13.6 nM; under setting [1], 15.6 nM; (input ligand: none) 26.6 nM.

On to “GUAGCAUACCGAGGAUAUUCAACAUGAGGAUCACCCAUGUGUUUGUUAUAGGCCAAAAGGCCUUGGGAGAAGGCGGAAUGCUAC [Xeonanis - 20 Mod16] (Eterna round: R96, puzzle: Same State NG 2)”, for which the “apparent KD of MS2 coat protein” value by setting is: (input ligand: FMN 200 uM) 9.03 nM; under setting [1], 9.65 nM; (input ligand: none) 12.9 nM.

On to “AUUAUUAAUAUAGGAUAUGUAAAACAUGAGGAUCACCCAUGUGAUAUCGUGAGUAAGGAGAGAGAACAGAAGGAUAUUUUUUUU [JMF's solution 3] (Eterna round: R96, puzzle: Same State NG 2)”, for which the “apparent KD of MS2 coat protein” value is, setting by setting: (input ligand: FMN 200 uM) 40.6 nM; under setting [1], 30.5 nM; (input ligand: none) 43.3 nM.

With “UCGGGCGUACUUGCUGACAUGAGGAUCACCCAUGUGAUUGGGAAGGAUAUGGUUCCGUUUCGGUUCCAGAAGGUCCUGGGUGCU [salish99_SSNG3_r04_313] (Eterna round: R96, puzzle: Same State NG 3)”, the “apparent KD of MS2 coat protein” value came out at 482 nM (input ligand: FMN 200 uM), 459 nM under setting [1] and 370 nM (input ligand: none).

For the sequence “GAGGGCGAAAGCAACAUGAGGAUCACCCAUGUCCUCGGAGGGCAGGAUAUCCGGCGGUAGCCGAAGGAGAAGGGUCGGUAAGAA [AK SSNG3-V2-33.1] (Eterna round: R96, puzzle: Same State NG 3)”, the “apparent KD of MS2 coat protein” value by setting is: (input ligand: FMN 200 uM) 159 nM; under setting [1], 107 nM; (input ligand: none) 584 nM.

Turning to “AGAUCAUGACGAGGAUAUGGUACAUGAGGAUCACCCAUGUAUGUACCAUAAUUAGUAUUAGGAAACCAGAAGGCGUCGUGGUCA [JL SSNG2 1.18] (Eterna round: R96, puzzle: Same State NG 2)”, the “apparent KD of MS2 coat protein” value (input ligand: FMN 200 uM) came out at 10.1 nM, the “apparent KD of MS2 coat protein” value under setting [1] came to 55.7 nM and the “apparent KD of MS2 coat protein” value (input ligand: none) is 85.4 nM.

As for “GAGUGGUAGAGAGGAUAUGCAUUGUUAUUCACUGUAGAAGGUUUUAACAUGAGGAUCACCCAUGUAGGACUAUUCCUGUGUUUU [Parity 62 - Jieux - Same State NG 1] (Eterna round: R96, puzzle: Same State NG 1)”, the “apparent KD of MS2 coat protein” value is, setting by setting: (input ligand: FMN 200 uM) 16.3 nM; under setting [1], 13.3 nM; (input ligand: none) 18.4 nM.

For “AAGUUACUAUCUCAGGAUAUCAUGUCAAAGACAUGAGGAUCACCCAUGUACCAGGAAACUGGUUAUGAGAAGGGAGAUAGUAACG [Mat - Same State 2 - Mod - D53] (puzzle: Same State 2)”, the “apparent KD of MS2 coat protein” value is 497 nM under setting [2], 149 nM under setting [3] and 443 nM under setting [4].

Regarding “GUAGCAUACCGAGGAUAUUCAUAUUACAUGAGGAUCACCCAUGUUAUAGGCCGAUUACGGCCUUGGGAGAAGGCGGAAUGCUAC [Xeonanis - 20 Mod24] (Eterna round: R96, puzzle: Same State NG 2)”, the “apparent KD of MS2 coat protein” value (input ligand: FMN 200 uM) is 17.4 nM, the “apparent KD of MS2 coat protein” value under setting [1] worked out at 38.1 nM and the “apparent KD of MS2 coat protein” value (input ligand: none) is 37.6 nM.

Turning to “GUGGUCAGACAUGAGGAUCACCCAUGUGGAAUAAAUAAGGACUAGGAUAUCGAAUAUAGGAUAUACGAGAAGGAGUGGUUGGUG (Eterna round: R96, puzzle: Same State NG 3)”, the “apparent KD of MS2 coat protein” value is, setting by setting: (input ligand: FMN 200 uM) 81.1 nM; under setting [1], 53.5 nM; (input ligand: none) 67.9 nM.

In the case of “AGUCCAGCAUAAGCUGGACAAAAGCAUGUACAUGAGGAUCACCCAUGUUCAUGUACAAGCUUUUUGCAAGUCAAAAU [Mat - hsa-mir-208a - Mod of JL - 82] (puzzle: Sensor for hsa-mir-208a)”, the “apparent KD of MS2 coat protein” value is, setting by setting: under setting [2], 374 nM; under setting [3], 18 nM; under setting [4], 734 nM.

“CUGCUACAUGAGGAUCACCCAUGUUGGAGUGAUGCAGGAUAUGUGUGACCAGAAGAUGAAACAGAAGGGCAAAGAA [JR_SS!_Sub004] (puzzle: Same State 1)”: the “apparent KD of MS2 coat protein” value is, setting by setting: under setting [2], 96.2 nM; under setting [3], 75.7 nM; under setting [4], 101 nM.

In the case of “CCCAGGCAUGGAGGAUAUGGGAACAUGAGGAUCACCCAUGUUAACUCCGUAGGCGGCUUAAGGCACCAGAAGGCUACGGCUGGU [Eternabot solution 15] (Eterna round: R96, puzzle: Same State NG 2)”, the “apparent KD of MS2 coat protein” value runs as follows: (input ligand: FMN 200 uM) 112 nM; under setting [1], 67.8 nM; (input ligand: none) 83 nM.

For “AGUCCAGCGAAAGCUGGACAAAAGUAUGUACAUGAGGAUCACCCAUGUUCAUGUACAAGCUUUUUGCUCGUCUUAAA [JL mod - D95 - 10] (puzzle: Sensor for hsa-mir-208a)”, the “apparent KD of MS2 coat protein” value under setting [2] was found to be 578 nM, the “apparent KD of MS2 coat protein” value under setting [3] was found to be 20.3 nM and the “apparent KD of MS2 coat protein” value under setting [4] came out at 620 nM.
